Source: US20250313633A1 (WUXI BIOLOGICS IRELAND, published 2025)

T1: human full-length B7H3 on MCF-7 cells (human, UniProt Q5ZPR3 29-534)
T1 chain: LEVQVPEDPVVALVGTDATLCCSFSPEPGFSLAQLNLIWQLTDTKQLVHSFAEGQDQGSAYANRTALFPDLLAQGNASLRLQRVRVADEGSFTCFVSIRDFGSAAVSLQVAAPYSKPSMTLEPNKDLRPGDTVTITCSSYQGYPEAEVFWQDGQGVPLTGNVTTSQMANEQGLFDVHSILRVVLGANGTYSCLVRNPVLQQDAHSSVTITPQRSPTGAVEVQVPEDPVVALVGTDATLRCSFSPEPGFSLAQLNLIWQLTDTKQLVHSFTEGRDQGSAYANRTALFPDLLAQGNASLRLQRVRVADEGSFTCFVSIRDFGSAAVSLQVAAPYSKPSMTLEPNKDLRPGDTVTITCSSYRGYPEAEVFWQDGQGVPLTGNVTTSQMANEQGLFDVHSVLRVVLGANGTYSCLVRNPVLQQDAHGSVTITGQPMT


Columns and labels:
[1] = molecular target: T1, human full-length B7H3 on MCF-7 cells; experiment: cell-based or functional assay
[2] = molecular target: T1, human full-length B7H3 on MCF-7 cells; experiment: FACS on MCF-7 cells
[3] = molecular target: T1, human full-length B7H3 on MCF-7 cells; experiment: cell-based or functional assay

Row | Binder | Internalization on MCF-7, EC50 [1] | Internalization on MCF-7, Max MFI [1] | Max MFI [2] | internalization, EC50 [3]
1 | W301088-1.145.16-xIgG1KV320 (antibody, V domains shown, also called the chimeric antibody; chimeric antibody) VH: DVQLQESGPGLVKPSQSLSLTCTVTDYSITGDYAWNWIRQFPGNKLEWMGYISYSGSTSYNPSLQSRISITRDTSKNQFFLQLNSVTSEDTATYFCARSLGRRWYFVVWGAGTTVTVSA VL: not shown | 0.51 nM | 57200 MFI | 19800 MFI | –
2 | W301088-1.145.16-z3-p1-uIgG1KV320 (antibody, V domains shown, human IgG1 LALA, kappa; also called the final lead antibody; final lead) VH: QVQLQESGPGLVKPSQTLSLTCTVTDYSITGDYAWNWIRQHPGKGLEWIGYISYSGSTSYNPSLQSRVTISRDTSKNQFSLKLSSVTAADTAVYFCARSLGRRWYFVVWGQGTTVTVSS VL: not shown | 0.44 nM | 52300 MFI | 19900 MFI | 0.51 nM
3 | Enoblituzumab (MacroGenics) (antibody, V domains shown) VH: EVQLVESGGGLVQPGGSLRLSCAASGFTFSSFGMHWVRQAPGKGLEWVAYISSDSSAIYYADTVKGRFTISRDNAKNSLYLQMNSLRDEDTAVYYCGRGRENIYYGSRLDYWGQGTTVTVSS VL: DIQLTQSPSFLSASVGDRVTITCKASQNVDTNVAWYQQKPGKAPKALIYSASYRYSGVPSRFSGSGSGTDFTLTISSLQPEDFATYYCQQYNNYPFTFGQGTKLEIKR | 1.95 nM | 39800 MFI | 4640 MFI | –
